Source: patent US20240059789A1 (Janssen / Centocor, published 2024)
Where a chain is given by its changes, count along the chain named. Values belong to the binder of their own block, whether it stands above or below them.

Columns and labels:
[1] = biological target: Human PSMA on prostate cancer cell lines (C4-2B, 22RV1) (human, UniProt Q04609 1-750); assay: cell-based or functional assay
[2] = biological target: Human CD3 on T cells / Jurkat cells (human, UniProt P07766 23-207); assay: cell-based or functional assay
Chain of Human CD3 on T cells / Jurkat cells (P07766 23-207 limits assumed): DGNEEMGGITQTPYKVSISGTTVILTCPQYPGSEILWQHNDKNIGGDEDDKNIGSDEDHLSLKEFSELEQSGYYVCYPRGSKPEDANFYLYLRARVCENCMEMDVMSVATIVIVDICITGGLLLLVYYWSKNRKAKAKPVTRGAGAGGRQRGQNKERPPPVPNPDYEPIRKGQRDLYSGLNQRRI

Chain of Human PSMA on prostate cancer cell lines (C4-2B, 22RV1) (Q04609 whole entry): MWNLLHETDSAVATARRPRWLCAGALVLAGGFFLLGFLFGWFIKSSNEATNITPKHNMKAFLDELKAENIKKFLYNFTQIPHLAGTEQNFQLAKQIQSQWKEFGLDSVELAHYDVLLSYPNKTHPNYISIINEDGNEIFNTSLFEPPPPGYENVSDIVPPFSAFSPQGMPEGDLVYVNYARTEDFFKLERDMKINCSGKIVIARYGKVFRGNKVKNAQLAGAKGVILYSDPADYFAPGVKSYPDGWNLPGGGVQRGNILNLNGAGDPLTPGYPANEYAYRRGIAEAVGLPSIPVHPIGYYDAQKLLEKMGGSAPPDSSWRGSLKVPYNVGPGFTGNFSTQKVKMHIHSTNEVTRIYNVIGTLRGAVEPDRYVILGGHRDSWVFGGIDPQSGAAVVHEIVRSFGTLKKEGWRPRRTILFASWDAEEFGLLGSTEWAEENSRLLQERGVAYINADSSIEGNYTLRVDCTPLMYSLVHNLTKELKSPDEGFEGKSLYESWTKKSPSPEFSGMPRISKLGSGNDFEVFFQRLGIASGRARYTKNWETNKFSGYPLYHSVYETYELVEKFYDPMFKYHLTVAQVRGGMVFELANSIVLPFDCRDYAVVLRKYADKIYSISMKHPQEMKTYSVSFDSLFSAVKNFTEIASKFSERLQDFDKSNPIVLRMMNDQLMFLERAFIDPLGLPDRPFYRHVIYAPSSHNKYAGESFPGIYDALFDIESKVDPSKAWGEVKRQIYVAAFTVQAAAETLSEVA

T cell activation EC50 [M] (CD25+ T cells, C4-2B co-culture, 72 h) [2]: 1.87e-10 M
B1: PS3B919 (bispecific antibody, human IgG1, lambda, L234A L235A)
heavy 1: QVQLQQSGPRLVRPSQTLSLTCAISGDSVFNNNAAWSWIRQSPSRGLEWLGRTYYRSKWLYDYAVSVKSRITVNPDTSRNQFTLQLNSVTPEDTALYYCARGYSSSFDYWGQGTLVTVSSASTKGPSVFPLAPSSKSTSGGTAALGCLVKDYFPEPVTVSWNSGALTSGVHTFPAVLQSSGLYSLSSVVTVPSSSLGTQTYICNVNHKPSNTKVDKKVEPKSCDKTHTCPPCPAPEAAGGPSVFLFPPKPKDTLMISRTPEVTCVVVSVSHEDPEVKFNWYVDGVEVHNAKTKPREEQYNSTYRVVSVLTVLHQDWLNGKEYKCKVSNKALPAPIEKTISKAKGQPREPQVYTLPPSREEMTKNQVSLTCLVKGFYPSDIAVEWESNGQPENNYKTTPPVLDSDGSFLLYSKLTVDKSRWQQGNVFSCSVMHEALHNHYTQKSLSLSPG
light 1: QSALTQPASVSGSPGQSITISCTGTSSNIGTYKFVSWYQQHPDKAPKVLLYEVSKRPSGVSSRFSGSKSGNTASLTISGLQAEDQADYHCVSYAGSGTLLFGGGTKLTVLGQPKAAPSVTLFPPSSEELQANKATLVCLISDFYPGAVTVAWKADSSPVKAGVETTTPSKQSNNKYAASSYLSLTPEQWKSHRSYSCQVTHEGSTVEKTVAPTECS
heavy 2: EVQLVESGGGLVQPGGSLRLSCAASGFTFSSYAMSWVRQAPGKGLEWVSAISGGIGSTYYADSVKGRFTISRDNSKNTLWLQMNSLRAEDTAVYYCAKDGVGATPYYFDYWGQGTLVTVSSASTKGPSVFPLAPSSKSTSGGTAALGCLVKDYFPEPVTVSWNSGALTSGVHTFPAVLQSSGLYSLSSVVTVPSSSLGTQTYICNVNHKPSNTKVDKKVEPKSCDKTHTCPPCPAPEAAGGPSVFLFPPKPKDTLMISRTPEVTCVVVSVSHEDPEVKFNWYVDGVEVHNAKTKPREEQYNSTYRVVSVLTVLHQDWLNGKEYKCKVSNKALPAPIEKTISKAKGQPREPQVYTLPPSREEMTKNQVSLTCLVKGFYPSDIAVEWESNGQPENNYKTTPPVLDSDGSFFLYSRLTVDKSRWQQGNVFSCSVMHEALHNHYTQKSLSLSPG
light 2: QSVLTQPPSVSAAPGQKVTISCSGSSSNIGNNYVSWYQQLPGTAPKLLIYDNNKRPSGIPDRFSGSKSGTSATLGITGLQTGDEADYYCGTWDSSLSAYVFGTGTKVTVLGQPKAAPSVTLFPPSSEELQANKATLVCLISDFYPGAVTVAWKADSSPVKAGVETTTPSKQSNNKYAASSYLSLTPEQWKSHRSYSCQVTHEGSTVEKTVAPTECS
Tumor killing EC50 [M] (C4-2B + PAN-T cells, 72 h, flow cytometry) [1]: 2.1e-10 M

T cell activation EC50 [M] (CD25+ T cells, C4-2B co-culture, 72 h) [2]: 1e-08 M
B2: PS3B918 (bispecific antibody, human IgG1, lambda, L234A L235A)
heavy 1: B1 heavy 1
light 1: B1 light 1
heavy 2: EVQLVESGGGLVKPGGSLRLSCAASGFTFSRYNMNWVRQAPGKGLEWVSSINSNSRYIYYADSVKGRFTISRDSAKNSLYLQMNSLRAEDTAVYYCAKTMGDYYYYYGMDVWGQGTTVTVSSASTKGPSVFPLAPSSKSTSGGTAALGCLVKDYFPEPVTVSWNSGALTSGVHTFPAVLQSSGLYSLSSVVTVPSSSLGTQTYICNVNHKPSNTKVDKKVEPKSCDKTHTCPPCPAPEAAGGPSVFLFPPKPKDTLMISRTPEVTCVVVSVSHEDPEVKFNWYVDGVEVHNAKTKPREEQYNSTYRVVSVLTVLHQDWLNGKEYKCKVSNKALPAPIEKTISKAKGQPREPQVYTLPPSREEMTKNQVSLTCLVKGFYPSDIAVEWESNGQPENNYKTTPPVLDSDGSFFLYSRLTVDKSRWQQGNVFSCSVMHEALHNHYTQKSLSLSPG
light 2: SSELTQPPSVSGAPGQRVTISCAGSLSNIGAGYDVHWYQQLPGTAPKLLIYGNINRLSGVPERFSGSKSGTSASLAITGLQAEDGADYYCQSYDSSLSSYVFGTGTKVTVLGQPKAAPSVTLFPPSSEELQANKATLVCLISDFYPGAVTVAWKADSSPVKAGVETTTPSKQSNNKYAASSYLSLTPEQWKSHRSYSCQVTHEGSTVEKTVAPTECS
Tumor killing EC50 [M] (C4-2B + PAN-T cells, 72 h, flow cytometry) [1]: 1e-08 M

T cell activation EC50 [M] (CD25+ T cells, C4-2B co-culture, 72 h) [2]: 2.11e-11 M
B3: PS3B921 (bispecific antibody, human IgG1, lambda, L234A L235A)
heavy 1: B1 heavy 1
light 1: B1 light 1
heavy 2: B1 heavy 2
light 2: B1 light 2 with N31I, Y99V, T103G, V107L
Tumor killing EC50 [M] (C4-2B + PAN-T cells, 72 h, flow cytometry) [1]: 3.11e-11 M

T cell activation EC50 [M] (CD25+ T cells, C4-2B co-culture, 72 h) [2]: 4.73e-11 M
B4: PS3B912 (bispecific antibody, human IgG1, lambda, L234A L235A)
heavy 1: B1 heavy 1
light 1: B1 light 1
heavy 2: B1 heavy 2 with A23T, T28I, I55Y, S57A, T58P, S63T, W80Y, Y110D, T115I
light 2: B1 light 2 with Y50F
Tumor killing EC50 [M] (C4-2B + PAN-T cells, 72 h, flow cytometry) [1]: 6.51e-11 M

T cell activation EC50 [M] (CD25+ T cells, C4-2B co-culture, 72 h) [2]: 1.77e-09 M
B5: PS3B920 (bispecific antibody, human IgG1, lambda, L234A L235A)
heavy 1: B1 heavy 1
light 1: B1 light 1
heavy 2: B1 heavy 2 with I55S, W80Y, T91S
light 2: B1 light 2
Tumor killing EC50 [M] (C4-2B + PAN-T cells, 72 h, flow cytometry) [1]: 3.2e-09 M

T cell activation EC50 [M] (CD25+ T cells, C4-2B co-culture, 72 h) [2]: 5.85e-11 M
B6: PS3B922 (bispecific antibody, human IgG1, lambda, L234A L235A)
heavy 1: B1 heavy 1
light 1: B1 light 1
heavy 2: B1 heavy 2 with I55S, W80Y, T91S
light 2: B1 light 2 with N31I, Y99V, T103G, V107L
Tumor killing EC50 [M] (C4-2B + PAN-T cells, 72 h, flow cytometry) [1]: 7.79e-11 M

T cell activation EC50 [M] (CD25+ T cells, C4-2B co-culture, 72 h) [2]: 1e-08 M
B7: PS3B931 (bispecific antibody, human IgG1, kappa, lambda, L234A L235A)
heavy 1: EVQLVESGGGLVKPGGSLRLSCAASGFTFSRYNMNWVRQAPGKGLEWVSSISTSSNYIYYADSVKGRFTFSRDNAKNSLDLQMSGLRAEDTAIYYCTRGWGPFDYWGQGTLVTVSSASTKGPSVFPLAPSSKSTSGGTAALGCLVKDYFPEPVTVSWNSGALTSGVHTFPAVLQSSGLYSLSSVVTVPSSSLGTQTYICNVNHKPSNTKVDKKVEPKSCDKTHTCPPCPAPEAAGGPSVFLFPPKPKDTLMISRTPEVTCVVVSVSHEDPEVKFNWYVDGVEVHNAKTKPREEQYNSTYRVVSVLTVLHQDWLNGKEYKCKVSNKALPAPIEKTISKAKGQPREPQVYTLPPSREEMTKNQVSLTCLVKGFYPSDIAVEWESNGQPENNYKTTPPVLDSDGSFLLYSKLTVDKSRWQQGNVFSCSVMHEALHNHYTQKSLSLSP
light 1: DIQMTQSPSSLSASVGDRVTITCRARQSIGTAIHWYQQKPGKAPKLLIKYASESISGVPSRFSGSGSGTDFTLTISSLQPEDFATYYCQQSGSWPYTFGQGTKLEIKRTVAAPSVFIFPPSDEQLKSGTASVVCLLNNFYPREAKVQWKVDNALQSGNSQESVTEQDSKDSTYSLSSTLTLSKADYEKHKVYACEVTHQGLSSPVTKSFNRGEC
heavy 2: B2 heavy 2
light 2: B2 light 2
Tumor killing EC50 [M] (C4-2B + PAN-T cells, 72 h, flow cytometry) [1]: 1e-08 M

T cell activation EC50 [M] (CD25+ T cells, C4-2B co-culture, 72 h) [2]: 3.45e-11 M
B8: PS3B926 (bispecific antibody, human IgG1, kappa, lambda, L234A L235A)
heavy 1: B7 heavy 1
light 1: B7 light 1
heavy 2: not shown
light 2: not shown
Tumor killing EC50 [M] (C4-2B + PAN-T cells, 72 h, flow cytometry) [1]: 4.78e-11 M

T cell activation EC50 [M] (CD25+ T cells, C4-2B co-culture, 72 h) [2]: 1.84e-10 M
B9: PS3B928 (bispecific antibody, human IgG1, kappa, lambda, L234A L235A)
heavy 1: B7 heavy 1
light 1: B7 light 1
heavy 2: not shown
light 2: not shown
Tumor killing EC50 [M] (C4-2B + PAN-T cells, 72 h, flow cytometry) [1]: 4.81e-10 M
